{"source": "FireProtDB (doi:10.1021/bi201253b)", "parents": {"B1": {"name": "H116A, A5H7H0 (parent)", "chain": "MQLQNFLSIVLLVVSGAIAGTVMDHDKIAKLPASGSPLETKFQPQLHIGNGCHSYPAVDAQGNWSGGLKPTGAPSAACKDTSKAQTYVRSATFQGKTALVYAWYMPKDEISTGIGHRHDWEGAVVFLNSDTQQIDGVAASAHGKWRKYPNPGGANIDDTHVKLQYSAEPVINSHALDLTDKGGDLPTLASWEGMGADARAAINERSHWGDANPPIADSLIGSSLSGAWMW"}}, "variants_of": "B1", "details": "Moniliophthora perniciosa; pH 7.2; Thermal; CD; sodium phosphate buffer 4mM; EDTA CaCl2 with ZnCl2 62.5 micro M 120 micro M 120 micro M; structure 3ST1; whole UniProt chain shown", "data": [{"variant": "H116A", "values": [{"measurement": "Tm", "value": 40.4, "unit": "°C"}, {"measurement": "change of melting temperature, mutant - wild type (higher = more stable)", "value": 0.4, "unit": "°C"}]}, {"variant": "H116S", "values": [{"measurement": "Tm", "value": 39.9, "unit": "°C"}, {"measurement": "change of melting temperature, mutant - wild type (higher = more stable)", "value": -0.07, "unit": "°C"}]}, {"variant": "D119K", "values": [{"measurement": "Tm", "value": 40.2, "unit": "°C"}, {"measurement": "change of melting temperature, mutant - wild type (higher = more stable)", "value": 0.25, "unit": "°C"}]}, {"variant": "V170R", "values": [{"measurement": "Tm", "value": 37.7, "unit": "°C"}, {"measurement": "change of melting temperature, mutant - wild type (higher = more stable)", "value": -2.26, "unit": "°C"}]}, {"variant": "D210S", "values": [{"measurement": "Tm", "value": 38.7, "unit": "°C"}, {"measurement": "change of melting temperature, mutant - wild type (higher = more stable)", "value": -1.25, "unit": "°C"}]}]}
